First the molecules themselves.
B1: SWI/SNF-related matrix-associated actin-dependent regulator of chromatin subfamily B member 1, residues 181 to 248; numbered along this chain, Q12824 (parent)
chain: SQPEVLVPIRLDMEIDGQKLRDAFTWNMNEKLMTPEMFSEILCDDLDLNPLTFVPAIASAIRQQIESY

± gives the uncertainty stated by the source.

The variants in the data set derive from B1. In words: abundance fitness (aPCA) (normalised: wild type 0, dead -1); higher = more abundant; growth selection in yeast, the domain comes from the species named. Conditions: Homo sapiens.
On to SQYEVLVPIRLDMEIDGQKLRDAFTWNMNEKLMTPEMFSEILCDDLDLNPLTFVPAIASAIRQQIESY, for which the abundance fitness worked out at 0.002 ± 0.092.

Regarding SQQEVLVPIRLDMEIDGQKLRDAFTWNMNEKLMTPEMFSEILCDDLDLNPLTFVPAIASAIRQQIESY, the abundance fitness stood at 0.178 ± 0.061.

Consider SQDEVLVPIRLDMEIDGQKLRDAFTWNMNEKLMTPEMFSEILCDDLDLNPLTFVPAIASAIRQQIESY, for which the abundance fitness came out at 0.266 ± 0.074. In the case of SQMEVLVPIRLDMEIDGQKLRDAFTWNMNEKLMTPEMFSEILCDDLDLNPLTFVPAIASAIRQQIESY, the abundance fitness was determined as 0.006 ± 0.085.

SQHEVLVPIRLDMEIDGQKLRDAFTWNMNEKLMTPEMFSEILCDDLDLNPLTFVPAIASAIRQQIESY: the abundance fitness is -0.097 ± 0.15. Then SQNEVLVPIRLDMEIDGQKLRDAFTWNMNEKLMTPEMFSEILCDDLDLNPLTFVPAIASAIRQQIESY, with 0.214 ± 0.098; and SQREVLVPIRLDMEIDGQKLRDAFTWNMNEKLMTPEMFSEILCDDLDLNPLTFVPAIASAIRQQIESY, with 0.161 ± 0.038; and SQTEVLVPIRLDMEIDGQKLRDAFTWNMNEKLMTPEMFSEILCDDLDLNPLTFVPAIASAIRQQIESY, with 0.063 ± 0.067.

Turning to SQIEVLVPIRLDMEIDGQKLRDAFTWNMNEKLMTPEMFSEILCDDLDLNPLTFVPAIASAIRQQIESY, the abundance fitness was -0.245 ± 0.35. Regarding SQAEVLVPIRLDMEIDGQKLRDAFTWNMNEKLMTPEMFSEILCDDLDLNPLTFVPAIASAIRQQIESY, the abundance fitness was determined as 0.02 ± 0.067. Then SQKEVLVPIRLDMEIDGQKLRDAFTWNMNEKLMTPEMFSEILCDDLDLNPLTFVPAIASAIRQQIESY, with 0.289 ± 0.09; and SQWEVLVPIRLDMEIDGQKLRDAFTWNMNEKLMTPEMFSEILCDDLDLNPLTFVPAIASAIRQQIESY, with -0.186 ± 0.073; and SQVEVLVPIRLDMEIDGQKLRDAFTWNMNEKLMTPEMFSEILCDDLDLNPLTFVPAIASAIRQQIESY, with -0.146 ± 0.045. For the variant SQFEVLVPIRLDMEIDGQKLRDAFTWNMNEKLMTPEMFSEILCDDLDLNPLTFVPAIASAIRQQIESY, the abundance fitness is 0.05 ± 0.078. Then SQLEVLVPIRLDMEIDGQKLRDAFTWNMNEKLMTPEMFSEILCDDLDLNPLTFVPAIASAIRQQIESY, with 0.003 ± 0.064. In the case of SQCEVLVPIRLDMEIDGQKLRDAFTWNMNEKLMTPEMFSEILCDDLDLNPLTFVPAIASAIRQQIESY, the abundance fitness is -0.297 ± 0.07.

On to SQSEVLVPIRLDMEIDGQKLRDAFTWNMNEKLMTPEMFSEILCDDLDLNPLTFVPAIASAIRQQIESY, for which the abundance fitness amounted to 0.129 ± 0.052.

In the case of SQPEVIVPIRLDMEIDGQKLRDAFTWNMNEKLMTPEMFSEILCDDLDLNPLTFVPAIASAIRQQIESY, the abundance fitness was -0.03 ± 0.43. With SQPEVTVPIRLDMEIDGQKLRDAFTWNMNEKLMTPEMFSEILCDDLDLNPLTFVPAIASAIRQQIESY, the abundance fitness was -0.126 ± 0.082. Then SQPEVQVPIRLDMEIDGQKLRDAFTWNMNEKLMTPEMFSEILCDDLDLNPLTFVPAIASAIRQQIESY, with -0.217 ± 0.29; and SQPEVFVPIRLDMEIDGQKLRDAFTWNMNEKLMTPEMFSEILCDDLDLNPLTFVPAIASAIRQQIESY, with -0.236 ± 0.12; and SQPEVAVPIRLDMEIDGQKLRDAFTWNMNEKLMTPEMFSEILCDDLDLNPLTFVPAIASAIRQQIESY, with -0.219 ± 0.24. Then SQPEVHVPIRLDMEIDGQKLRDAFTWNMNEKLMTPEMFSEILCDDLDLNPLTFVPAIASAIRQQIESY, with -0.212 ± 0.13; and SQPEVRVPIRLDMEIDGQKLRDAFTWNMNEKLMTPEMFSEILCDDLDLNPLTFVPAIASAIRQQIESY, with -0.078 ± 0.06; and SQPEVMVPIRLDMEIDGQKLRDAFTWNMNEKLMTPEMFSEILCDDLDLNPLTFVPAIASAIRQQIESY, with 0.141 ± 0.083. Turning to SQPEVGVPIRLDMEIDGQKLRDAFTWNMNEKLMTPEMFSEILCDDLDLNPLTFVPAIASAIRQQIESY, the abundance fitness is -0.217 ± 0.089. For SQPEVSVPIRLDMEIDGQKLRDAFTWNMNEKLMTPEMFSEILCDDLDLNPLTFVPAIASAIRQQIESY, the abundance fitness turned out to be 0.036 ± 0.06. Then TQPEVLVPIRLDMEIDGQKLRDAFTWNMNEKLMTPEMFSEILCDDLDLNPLTFVPAIASAIRQQIESY, with -0.09 ± 0.066; and YQPEVLVPIRLDMEIDGQKLRDAFTWNMNEKLMTPEMFSEILCDDLDLNPLTFVPAIASAIRQQIESY, with 0.088 ± 0.11; and RQPEVLVPIRLDMEIDGQKLRDAFTWNMNEKLMTPEMFSEILCDDLDLNPLTFVPAIASAIRQQIESY, with -0.307 ± 0.09. Take DQPEVLVPIRLDMEIDGQKLRDAFTWNMNEKLMTPEMFSEILCDDLDLNPLTFVPAIASAIRQQIESY: the abundance fitness was -0.123 ± 0.27. Then WQPEVLVPIRLDMEIDGQKLRDAFTWNMNEKLMTPEMFSEILCDDLDLNPLTFVPAIASAIRQQIESY, with -0.435 ± 0.074; and FQPEVLVPIRLDMEIDGQKLRDAFTWNMNEKLMTPEMFSEILCDDLDLNPLTFVPAIASAIRQQIESY, with -0.132 ± 0.13; and GQPEVLVPIRLDMEIDGQKLRDAFTWNMNEKLMTPEMFSEILCDDLDLNPLTFVPAIASAIRQQIESY, with -0.061 ± 0.059.

Take LQPEVLVPIRLDMEIDGQKLRDAFTWNMNEKLMTPEMFSEILCDDLDLNPLTFVPAIASAIRQQIESY: the abundance fitness is -0.021 ± 0.049. Then MQPEVLVPIRLDMEIDGQKLRDAFTWNMNEKLMTPEMFSEILCDDLDLNPLTFVPAIASAIRQQIESY, with 0.127 ± 0.071. With KQPEVLVPIRLDMEIDGQKLRDAFTWNMNEKLMTPEMFSEILCDDLDLNPLTFVPAIASAIRQQIESY, the abundance fitness was found to be 0.167 ± 0.077. Then CQPEVLVPIRLDMEIDGQKLRDAFTWNMNEKLMTPEMFSEILCDDLDLNPLTFVPAIASAIRQQIESY, with -0.095 ± 0.067; and IQPEVLVPIRLDMEIDGQKLRDAFTWNMNEKLMTPEMFSEILCDDLDLNPLTFVPAIASAIRQQIESY, with 0.238 ± 0.3.
